Experimental data published in US20240343811A1 (SHANDONG SIMCERE BIOPHARMACUTICAL, published 2024).
Numbering of substitutions follows the chain as printed. Read-outs that look alike come from different tables or passages of the source.

T1: human CD16b (NA2), full length, on FlpinCHO cells (human, UniProt O75015 17-200)
T1 construct: also called FlpinCHO-human CD16b (NA2)
T1 chain: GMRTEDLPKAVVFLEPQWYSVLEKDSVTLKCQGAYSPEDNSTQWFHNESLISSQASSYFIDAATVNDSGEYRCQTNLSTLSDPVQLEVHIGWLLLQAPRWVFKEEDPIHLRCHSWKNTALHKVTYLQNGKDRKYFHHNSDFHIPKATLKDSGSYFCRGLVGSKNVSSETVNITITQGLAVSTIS

T2: human CD16b (NA1), full length, on FlpinCHO cells (human, UniProt O75015 17-200)
T2 construct: also called FlpinCHO-human CD16b (NA1)
T2 chain: T1 chain with S20R, S49N, N66D, I90V

B1: VHH06 VHH-Fc antibody (Fc fusion)
chain: EVQLVESGGGLVQAGGSLRLSCVASGSTWTTYAVRWYRQAPGKQREWVAFISVDGSTNYPDSVKGRFIVSRDNAKNTVYLQMNSLKPEDTADYICRVGGQYWGQGTQVTVSSEPKSSDKTHTCPPCPAPEFEGGPSVFLFPPKPKDTLMISRTPEVTCVVVAVSHEDPEVKFNWYVDGVEVHNAKTKPREEQYNSTYRVVSVLTVLHQDWLNGKEYKCKVSNKALPAPIEKTISKAKGQPREPQVYTLPPSREEMTKNQVSLTCLVKGFYPSDIAVEWESNGQPENNYKTTPPVLDSDGSFFLYSKLTVDKSRWQQGNVFSCSVMHEALHNHYTQKSLSLSPGK
B2: VHH11 VHH-Fc antibody (Fc fusion)
chain: EVQVVESGGGLAQAGGSLRLSCAVSGITFSSYAMGWYRQDPGKQRELVAAINRFGLTNYADSVKGRFTISRDNAKNTVYLQMTSLKPEDTAVYYCNTGGVYSHPNYYTGTYWGQGTQVTVSSEPKSSDKTHTCPPCPAPEFEGGPSVFLFPPKPKDTLMISRTPEVTCVVVAVSHEDPEVKFNWYVDGVEVHNAKTKPREEQYNSTYRVVSVLTVLHQDWLNGKEYKCKVSNKALPAPIEKTISKAKGQPREPQVYTLPPSREEMTKNQVSLTCLVKGFYPSDIAVEWESNGQPENNYKTTPPVLDSDGSFFLYSKLTVDKSRWQQGNVFSCSVMHEALHNHYTQKSLSLSPGK
B3: VHH12 VHH-Fc antibody (Fc fusion)
chain: B2 chain with E1Q, V4L, A12V, V24A, D40A, S62F, D72V, N105D

Experiments:
Experiment in all cases: FACS on FlpinCHO cells
[1] = molecular target: T3, human CD16a (158V), full length, on cells (human, UniProt P08637 17-254)
T3 construct: also used as target for the bought Jurkat-NFAT reporter line stably expressing human CD16a (158V); also called FlpinCHO-human CD16a (158V); FlpinCHO-CD16a (158V)

[2] = molecular target: human CD16a (158F), full length, on FlpinCHO cells (human, UniProt P08637 17-254)
[3] = molecular target: T1, human CD16b (NA2), full length, on …
Summary of the method: (§1)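 EC50 values come from fitted MFI curves measured by FACS. Antibody dilutions were bound for 1 hour on ice to CD16b-transfected FlpinCHO cells suspended in PBS with 2% BSA blocking solution.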

[4] = molecular target: T2, human CD16b (NA1), full length, on …
Summary of the method: as §1

[5] = molecular target: T4, cynomolgus monkey CD16, full length, on FlpinCHO cells (cynomolgus monkey, UniProt Q8SPW2 17-254)
T4 construct: also called FlpinCHO-cyno CD16; Flipin CHO-cyno CD16
Summary of the method: (§2)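 FlpinCHO cells expressing full-length cynomolgus CD16, blocked in PBS/2% BSA at 2×10⁶ cells/ml, incubated with antibody at various concentrations 1 h on ice. Flow cytometry MFI fitted to give EC50.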

[6] = molecular target: T4, cynomolgus monkey CD16, full length, on …; remark: listed apart in the source
Summary of the method: as §2

T3 sequence (P08637 17-254 F176V limits assumed): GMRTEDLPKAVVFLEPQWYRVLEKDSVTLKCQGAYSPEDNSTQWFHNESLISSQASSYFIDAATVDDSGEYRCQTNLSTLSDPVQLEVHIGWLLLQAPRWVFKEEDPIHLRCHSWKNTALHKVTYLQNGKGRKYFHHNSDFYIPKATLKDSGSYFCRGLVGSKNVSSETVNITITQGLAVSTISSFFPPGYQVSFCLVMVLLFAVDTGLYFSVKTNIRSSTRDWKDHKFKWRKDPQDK
T4 sequence (Q8SPW2 other isoform, or with tags, fused parts or gaps limits assumed): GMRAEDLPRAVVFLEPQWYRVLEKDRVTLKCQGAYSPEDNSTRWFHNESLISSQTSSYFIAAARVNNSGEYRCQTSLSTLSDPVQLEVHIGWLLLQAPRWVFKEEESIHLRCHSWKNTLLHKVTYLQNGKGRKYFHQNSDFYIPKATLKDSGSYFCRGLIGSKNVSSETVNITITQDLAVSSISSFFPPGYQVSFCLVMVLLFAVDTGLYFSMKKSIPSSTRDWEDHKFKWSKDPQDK
Sequence of human CD16a (158F), full length, on FlpinCHO cells (P08637 17-254 limits assumed): as the sequence (P08637 17-254 F176V limits assumed) above, with V160F counted along it

Row | Binder | EC50 [1] [pM] | Maximum mean fluorescence intensity [1] | EC50 [2] [pM] | Maximum mean fluorescence intensity [2] | Maximum mean fluorescence intensity [3] | EC50 [4] [pM] | Maximum mean fluorescence intensity [4] | EC50 [5] [pM] | Maximum mean fluorescence intensity [5] | EC50 [6] [pM] | Maximum mean fluorescence intensity [6]
1 | B1 | 660 | 9250 | 610 | 10200 | 468 | 740 | 54100 |  |  |  | 
2 | B2 |  |  |  |  |  |  |  | 410 | 22000 |  | 
3 | B3 | 240 | 8050 | 230 | 8730 | 87900 | 700 | 60500 | 240 | 22200 | 350 | 18400
